± gives the standard deviation of the averaged measurements.
B1: library; a variant is named by its letters at N, in order (parent)
chain: GCUGUCACCGGUGCUUGGUACGUUAUAUUCAGCCGGUCUGAUGAGUCUNNNNNNAGACGAAACAGC

Legend:
(6R,S)-folinic acid [1] = variants of: B1; test: normalized RNA/DNA level without ligand (relative to sTRSVctl = 100) (log10 (% of sTRSVctl)); HEK293T overexpressing SLC46A1; higher = less ribozyme self-cleavage, higher mRNA level; settings: without (6R,S)-folinic acid; ligand present: no
Method in brief: (§1)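 Library plasmids carrying ribozyme switches linked to mCherry, or to eGFP in some ligand experiments, were transfected into HEK293T at 4 µg per 6-well well, with any ligand added 1 h earlier. Seventy-two hours on, total RNA was extracted with EDTA and reverse-transcribed, amplified, barcoded and sequenced. RNA level was RNA over DNA reads normalized to a spiked-in non-cleaving sequence or to the top sequences, then scaled and log-transformed. The top set was 25 sequences, the transform was ×100 and log10, and sequences needed ≥100 DNA reads.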

(6R,S)-folinic acid [2] = variants of: B1; test: normalized RNA/DNA level with ligand (relative to sTRSVctl = 100) (log10 (% of sTRSVctl)); HEK293T overexpressing SLC46A1; ligand concentration (+) RNA-Seq: 6 mM; higher = less ribozyme self-cleavage, higher mRNA level; settings: with (6R,S)-folinic acid; ligand present: yes
Method in brief: as §1

Row | Variant | normalized RNA/DNA level without ligand (log10) ((6R,S)-folinic acid [1]) | normalized RNA/DNA level with ligand (log10) ((6R,S)-folinic acid [2])
1 | GGAGGG | 1.98 ± 0.028 | 2.04 ± 0.046
2 | CAGGCA | 2.022 ± 0.019 | 2.009 ± 0.0063
3 | CGCAGU | 2.037 ± 0.015 | 2.04 ± 0.049
4 | ACAGCC | 2.03 ± 0.0033 | 2.04 ± 0.045
5 | GUUAGC | 1.92 ± 0.025 | 1.99 ± 0.02
6 | UGCUAU | 1.994 ± 0.0055 | 2.05 ± 0.03
7 | CGUGGC | 2.02 ± 0.027 | 2 ± 0.073
8 | GCCUGU | 2.057 ± 0.0027 | 2.06 ± 0.038
9 | GCCUGC | 2.052 ± 0.01 | 2.046 ± 0.013
10 | AUUGCA | 1.976 ± 0.0096 | 1.98 ± 0.05
11 | GACGGC | 2.03 ± 0.016 | 2.04 ± 0.072
12 | UUACGA | 2.013 ± 0.011 | 2.04 ± 0.035
13 | CAUUGC | 2.021 ± 0.0021 | 1.99 ± 0.019
14 | AGUUCU | 2.02 ± 0.025 | 2.014 ± 0.011
15 | CACUUA | 1.952 ± 0.0058 | 1.97 ± 0.058
16 | UCCAAA | 1.982 ± 0.0034 | 1.986 ± 0.015
17 | ACCCUA | 2.018 ± 0.015 | 2.03 ± 0.022
18 | CAUCGA | 2.045 ± 0.0027 | 2.06 ± 0.026
19 | GUGAGC | 1.74 ± 0.024 | 1.962 ± 0.011
20 | CAUGGC | 2.04 ± 0.022 | 2.03 ± 0.03

Row | Variant | normalized RNA/DNA level without ligand (log10) ((6R,S)-folinic acid [1]) | normalized RNA/DNA level with ligand (log10) ((6R,S)-folinic acid [2])
21 | CCAAAG | 1.899 ± 0.0025 | 1.99 ± 0.025
22 | UGGAAC | 1.921 ± 0.0075 | 2 ± 0.035
23 | UGGAAA | 1.919 ± 0.0043 | 1.98 ± 0.028
24 | CGACUC | 2.08 ± 0.023 | 2.04 ± 0.07
25 | AAUUCC | 2.059 ± 0.018 | 2.036 ± 0.019
26 | CAUCCA | 2.028 ± 0.006 | 1.99 ± 0.036
27 | UCUGAA | 1.911 ± 0.0014 | 1.98 ± 0.05
28 | CGAGAG | 1.964 ± 0.015 | 1.964 ± 0.0059
29 | AAACUC | 2.0456 ± 0.00044 | 2.03 ± 0.049
30 | UGAUCC | 2.059 ± 0.012 | 2.03 ± 0.049
31 | CACGAA | 1.956 ± 0.0025 | 1.94 ± 0.039
32 | CAACAA | 1.966 ± 0.015 | 1.99 ± 0.032
33 | CGAUAU | 1.949 ± 0.0095 | 2.01 ± 0.028
34 | GCGGUA | 1.98 ± 0.017 | 2.011 ± 0.014
35 | GUAGGU | 1.998 ± 0.013 | 2.04 ± 0.03
36 | UCCCGC | 2.013 ± 0.015 | 1.99 ± 0.053
37 | AGCUUC | 2.0594 ± 0.00028 | 2.045 ± 0.011
38 | CACUAC | 2.0166 ± 0.00023 | 2.01 ± 0.074
39 | UUGCGA | 1.97 ± 0.022 | 2.02 ± 0.055
40 | UUGCGU | 1.98 ± 0.031 | 2.03 ± 0.032

Row | Variant | normalized RNA/DNA level without ligand (log10) ((6R,S)-folinic acid [1]) | normalized RNA/DNA level with ligand (log10) ((6R,S)-folinic acid [2])
41 | GACCAU | 2.017 ± 0.0083 | 2.01 ± 0.027
42 | AGAUCU | 2.0242 ± 0.00035 | 2.05 ± 0.032
43 | CCUUAA | 2.01 ± 0.0061 | 2.003 ± 0.013
44 | GCGGCC | 2.072 ± 0.011 | 2.077 ± 0.02
45 | GUCAUC | 2.0573 ± 0.0006 | 2.01 ± 0.0035
46 | CCUCAU | 2.03 ± 0.025 | 2 ± 0.054
47 | ACCUGC | 2.07 ± 0.016 | 2.04 ± 0.044
48 | CUAAUG | 2.026 ± 0.013 | 2.02 ± 0.038
49 | GCCCCC | 2.03 ± 0.032 | 2.04 ± 0.048
50 | CCAACU | 2.049 ± 0.0064 | 2.053 ± 0.02
51 | UCACUG | 1.906 ± 0.0057 | 2.015 ± 0.02
52 | AUCAAC | 2.0326 ± 0.00048 | 2.01 ± 0.033
53 | AACUCU | 2.0187 ± 0.0003 | 2.02 ± 0.031
54 | UCCUAU | 1.9805 ± 0.00094 | 2.03 ± 0.034
55 | ACAUUG | 1.94 ± 0.032 | 2.024 ± 0.011
56 | GUCUUU | 2.047 ± 0.0022 | 2.04 ± 0.064
57 | UUUAGA | 1.99 ± 0.02 | 2.03 ± 0.025
58 | CACAGG | 1.95 ± 0.026 | 2 ± 0.048
